The chains are these.
T1: MDMX (1–134) (UniProt O15151 1-134)
T1 construct: MDMX, residues 1-134; the methods may stand in the ESI; also called Mouse double minute X homolog
T1 sequence (looked up): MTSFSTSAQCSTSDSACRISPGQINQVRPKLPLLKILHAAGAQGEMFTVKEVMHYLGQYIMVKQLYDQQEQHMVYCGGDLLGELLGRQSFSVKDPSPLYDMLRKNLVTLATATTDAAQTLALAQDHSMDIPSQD

B1: trans-3FITC (ATSP-7041) (peptide)
chain: {FITC-Ahx}-LTF[R8]EYWAQ[Cba][S5]SAA-NH2
modifications: staple 4-11; also: trans alkene isomer
B2: 4FITC (peptide)
chain: {FITC-Ahx}-LTF[S7]EYWAQ[Cba][S7]SAA-NH2
modifications: bridge 4-11; not fully specified (bridges)
B3: cis-2FITC (ATSP-7041) (peptide)
chain: {FITC-Ahx}-LTF[R8]EYWAQ[Cba][S5]SAA-NH2
modifications: staple 4-11; also: cis alkene isomer
B4: 5FITC (peptide)
chain: {FITC-Ahx}-LTA[S7]EYWAQ[Cba][S7]SAA-NH2
modifications: staple 4-11

Starred links: 1 amine or outer side, 2 acyl side, 3 side chain; linkers in the order of their positions; H or OH if unused. Positions of bridges follow the written chain, without caps; N, C: chain ends. Non-standard residues stand in square brackets, D forms with d. *: point of attachment. FITC = O=C1OC2(c3ccc(O)cc3Oc3cc(O)ccc32)c2ccc(NC(=S)*)cc21; S7 = C[C@@](CCCCCC=[*:3])(N[*:1])C(=O)[*:2]; R8 = C=CCCCCCC[C@@](C)(N)C(=O)O; Cba = N[C@@H](CC1CCC1)C(=O)O; S5 = C=CCCC[C@](C)(N)C(=O)O; Ahx = NCCCCCC(=O)O

T2 sequence (Q00987 1-138): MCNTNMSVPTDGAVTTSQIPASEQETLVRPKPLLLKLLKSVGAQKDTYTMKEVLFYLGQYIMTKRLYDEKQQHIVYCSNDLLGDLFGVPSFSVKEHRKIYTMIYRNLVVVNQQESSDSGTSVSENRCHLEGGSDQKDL

The target of the first assay is T1, MDMX (1–134). In words: fluorescence polarisation; direct binding; 10 nM FITC-labelled peptide incubated with varying concentrations of protein (10 μM to 9 pM), FP read after 3 h; n = 3. The settings on record: both partners purified. A general note: Polarisation of emitted light reports the rotation of a fluorescent probe.
For orientation: Kd means the concentration at which binding is half-saturated. The low end stands for a tighter complex, the high end for a looser complex. In turn, B1 registered a dissociation constant Kd of 7.86 ± 0.15 nM.
For the molecule B2, the dissociation constant Kd came to 203 ± 54 nM.
In turn, B3 registered a dissociation constant (Kd) of 8.42 ± 0.09 nM.
In turn, B4 returned a Kd of 1120 ± 252 nM.

Another assay addresses T2, MDM2 (1–138) (UniProt Q00987 1-138).
T2 construct: MDM2, residues 1-138; the methods may stand in the ESI; also called Mouse double minute 2 homolog
Described as above. The settings on record: both partners purified.
B2: binding was characterised by a dissociation constant (Kd) of 1.39 ± 0.08 nM.
Turning to B4, the equilibrium dissociation constant (Kd) was found to be 3680 ± 151 nM. Against the preceding molecule, the Kd is about 2600-fold higher.

The values are drawn from article PMC11741006 (RSC Chemical Biology, 2025).
